For data set [1], the target named is T1, MnoR (Mycobacterium smegmatis, UniProt A0R5L8 1-216).
T1 sequence: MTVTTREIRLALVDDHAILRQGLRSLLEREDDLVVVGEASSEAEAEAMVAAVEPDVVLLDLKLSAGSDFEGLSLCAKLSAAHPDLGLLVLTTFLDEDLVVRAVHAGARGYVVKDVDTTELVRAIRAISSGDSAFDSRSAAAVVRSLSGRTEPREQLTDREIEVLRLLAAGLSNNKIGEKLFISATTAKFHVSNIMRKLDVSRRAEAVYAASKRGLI
Briefly: EMSA; 100x polyA instead of salmon sperm DNA; EMSA: 50 mM Tris-HCl (pH not stated), 100 mM NaCl, 10 mM MgCl2, 100 ug/ml BSA, 5% glycerol, 5 nM DNA, 30 min 25 °C, 5% native gel at 4 °C; MST: PBS-T, room temperature, DNA 60 nM (perfect), 15 nM (2MM), 120 nM (4MM). To be noted: protein: recombinant, tags: N-terminal 6xHis, chain copies: 2, label: 5'-Cy5 on strand 1.

In data set [2] the target is T1, MnoR. Briefly: MST; PBS-T; EMSA: 50 mM Tris-HCl (pH not stated), 100 mM NaCl, 10 mM MgCl2, 100 ug/ml BSA, 5% glycerol, 5 nM DNA, 30 min 25 °C, 5% native gel at 4 °C; MST: PBS-T, room temperature, DNA 60 nM (perfect), 15 nM (2MM), 120 nM (4MM). To be noted: protein: recombinant; tags: N-terminal 6xHis; chain copies: 2; label: 5'-Cy5 on strand 1; blunt. For orientation: In EMSA bound probe runs differently from free probe, usually more slowly.

The Kd is the constant that tells how readily two partners part at equilibrium.

B1: mno 4MM (dsDNA)
DNA 1: CACGCTGATCACGTCCGACGTCGACGAGCGCGACCAGCCGTTCATCACCGGTGAGCGCACCAAGGAAGGCTTCTTCCGCGTGAAGAA
DNA 2: TTCTTCACGCGGAAGAAGCCTTCCTTGGTGCGCTCACCGGTGATGAACGGCTGGTCGCGCTCGTCGACGTCGGACGTGATCAGCGTG
Turning to B1, the binding result with MnoR [1] (blunt) is reported as “binds”.

B2: mno 2MM (dsDNA)
DNA 1: ACCTGGCGGATCTGAGCCCGGCAGGCGATCCGCACACCGGTACCGTGCTGGTGGGCGCGAGCCCCGAGTTGCTGGTCGCCCGCGACG
DNA 2: CGTCGCGGGCGACCAGCAACTCGGGGCTCGCGCCCACCAAGCACGGTACCGGTGTGCGGATCGCCTGCCGGGCTCAGATCCGCCAGGT
As to B2, the binding result in the data set with MnoR [1] is “binds”.

B3: mno perfect motif (dsDNA)
DNA 1: GCCTGAGCGATCTGGGGCTCTGAGCACCCTCGCCCACCGGTGAGCCGCCGGTGGGCGGCCACCCTGCCCGACCGGACAGTTCTGCCG
DNA 2: CGGCAGAACTGTCCGGTCGGGCAGGGTGGCCGCCCACCGGCGGCTCACCGGTGGGCGAGGGTGCTCAGAGCCCCAGATCGCTCAGGC
Consider B3, for which the Kd with MnoR [2] came to 2370 nM.

B4: mno 3MM (dsDNA)
DNA 1: GCTGGAGGAGGCGTTCACCGCTGACTGGCTCGCCCAGCACTCCTAAGCCGGTGGGCGCCGTCACCCGCGGCACCACCGGTTACAACC
DNA 2: GGTTGTAACCGGTGGTGCCGCGGGTGACGGCGCCCACCGGCTTAGGAGTGCTGGGCGAGCCAGTCAGCGGTGAACGCCTCCTCCAGC
B4: in the data set with MnoR [1] (blunt), the binding result is “binds”.
